{"source": "paper PMC9307154", "molecular_target": "Bovine leukemia virus retropepsin (BLV-PR), mature recombinant protease (Bovine leukemia virus)", "test": "enzyme kinetics (initial rate against enzyme concentration); dimer to monomers; BLV-PR 5-200 nM (as monomer) preincubated 15 min at 25°C in reaction buffer (250 mM phosphate pH 5.6, 500 mM NaCl, 10 mM EDTA, 5 mM DTT, 1% glycerol, 1% DMSO), then 1 uM MA-CA fluorogenic substrate, 37°C, rate of the first 3 min, fit of quadratic Eq 1", "data": [{"substance": "Bovine leukemia virus retropepsin (BLV-PR), mature recombinant protease (enzyme)", "values": [{"measurement": "Kd", "result": 160, "unit": "nM"}]}]}
